Starred links: 1 amine or outer side, 2 acyl side, 3 side chain; linkers in the order of their positions; H or OH if unused. Residues, ends and D or L forms follow the SMILES beside them. CO = O=C([*:1])[*:2]
How the values were obtained:
hK2 [1] = target: T1, hK2 (Homo sapiens, UniProt P20151); assay: Inhibition of hK2 by protease inhibitors (substrate H-Pro-Phe-Arg-AMC); format: biochemical; conditions: for inhibition of hK2 (in words): 8 nM hK2, 90 μM substrate; for inhibition at 100 µM: inhibitor 100 μM (highest recommended working concentration), 90 μM peptide substrate; for remaining activity at 100 µM: inhibitor 100 μM
T1 construct: made in house
Procedure: Activity of hK2 (1.6 pmol) was monitored using the substrate H-Pro-Phe-Arg-AMC (SEQ ID NO: 55) (90 μM). Inhibitors, at commonly used concentrations, and hK2 (8.3 nM) were mixed and proteolysis of 90 μM H-Pro-Phe-Arg-AMC (SEQ ID NO: 55) was followed up to 20 minutes, starting directly or 10 minutes after mixing the enzyme with various inhibitors. Inhibition was evaluated by comparison with […] controls.
The proteolytic activity is expressed in percentage of inhibitor-free control after 10 minutes of incubation.
Therefore, PPACK can be used to obtain fast irreversible inhibition of hK2.

hK2 [2] = target: T1, hK2; assay: Hydrolysis of hK2 substrates by hK2; format: biochemical; conditions: hK2 1 μg/ml, 50 mM Tris, 0.1 M NaCl, pH 7.8
Procedure: (§1) Hydrolyses of particular hK2 substrates were carried out at a hK2 concentrations of 1 μg/ml in 50 mM Tris buffer, with 0.1 M NaCl, at pH 7.8. Serum hydrolysis measurements were carried out in 50% fresh human serum in 50 mM Tris buffer, with 0.1 M NaCl, at pH 7.8. The single letter amino acid code was used to designate the peptide sequences used for Table 4. The units FU are arbitrary fluorescence units. The entries “U.D.” were for measurements of less than 0.01 FU/hour.

[3] = Serum hydrolysis of hK2 substrates; format: in vitro ADME; conditions: 50% fresh human serum in 50 mM Tris, 0.1 M NaCl, pH 7.8
Procedure: as §1

[4] = 10 minutes of incubation, 8.3 nM hK2, 90 μM substrate, read-out: Activity (%) of hK2, percentage of inhibitor-free control

T1 sequence (P20151 25-261): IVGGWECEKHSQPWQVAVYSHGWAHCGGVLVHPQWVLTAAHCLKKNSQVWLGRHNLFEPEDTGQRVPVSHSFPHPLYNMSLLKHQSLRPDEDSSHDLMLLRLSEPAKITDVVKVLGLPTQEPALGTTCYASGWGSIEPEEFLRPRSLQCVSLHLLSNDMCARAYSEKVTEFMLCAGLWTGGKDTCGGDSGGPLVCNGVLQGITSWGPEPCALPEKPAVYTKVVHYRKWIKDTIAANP

Compound | hK2 Hydrolysis Rate (hK2 [2]; Table 4) | Serum Hydrolysis Rate ([3]; Table 4) | hK2 Hydrolysis Rate (hK2 [2]; Table 5) | Serum Hydrolysis Rate ([3]; Table 5) | also measured
Aprotinin | – | – | – | – | inhibition of hK2 (in words) (hK2 [1]): not to be good hK2 inhibitor; Activity (%) of hK2, percentage of inhibitor-free control (hK2 [1]; inhibitor 5 μM, 10 minutes of incubation, 8.3 nM hK2, 90 μM substrate): 10%; Activity (%) of hK2, percentage of inhibitor-free control (hK2 [1]; inhibitor 30 μM, 10 minutes of incubation, 8.3 nM hK2, 90 μM substrate): 33%
CC(C)[C@H](NC(=O)[C@H](CCCNC(=N)N)NC(=O)N[C@@H](Cc1ccccc1)C(=O)O)C(=O)N[C@H](C=O)CCCNC(=N)N [Antipain, antipain] ({Phe-CO}-Arg-Val-Arg-aldehyde) | – | – | – | – | inhibition at 100 µM (hK2 [1]): ~90%; remaining activity at 100 µM (hK2 [1]; [4]): 33%; remaining activity at 500 µM (hK2 [1]; inhibitor 500 μM, 10 minutes of incubation, 8.3 nM hK2, 90 μM substrate, read-out: Activity (%) of hK2, percentage of inhibitor-free control): 10%
CC(=O)N[C@@H](CC(C)C)C(=O)N[C@@H](CC(C)C)C(=O)N[C@H](C=O)CCCNC(=N)N [Leupeptin, leupeptin] | – | – | – | – | inhibition of hK2 (in words) (hK2 [1]): only weakly inhibited; inhibition at 100 µM (hK2 [1]): ~60%; remaining activity at 100 µM (hK2 [1]; [4]): 12%
SEQ ID NO: 70: hK2 substrate peptide, single letter sequence P7-P′1 (GSKGHFRL; listed as Homo sapiens) | 3029.27 FU/hr/m | 0.04 FU/hr | – | – | –
SEQ ID NO: 81: hK2 substrate peptide, single letter sequence P7-P′1 (GSKGHFHL; listed as Homo sapiens) | 171.47 FU/hr/m | 0.10 FU/hr | – | – | –
SEQ ID NO: 116: hK2 substrate peptide, single letter sequence P6-P′1 (GGKARQL; listed as Homo sapiens) | – | – | 1021.9 FU/hr/m | 0.13 FU/hr | –
SEQ ID NO: 105: hK2 substrate peptide, single letter sequence P6-P′1 (GGKARRL; listed as Homo sapiens) | – | – | 2171.2 FU/hr/m | UD (The entries “U.D.” were for measurements of less than 0.01 FU/hour) | –
SEQ ID NO: 68: hK2 substrate peptide, single letter sequence P7-P′1 (GGGKAHRL; listed as Homo sapiens) | 4100.94 FU/hr/m | 0.09 FU/hr | – | – | –
SEQ ID NO: 83: hK2 substrate peptide, single letter sequence P7-P′1 (GPLILSRL; listed as Homo sapiens) | 118.21 FU/hr/m | 0.07 FU/hr | – | – | –
SEQ ID NO: 80: hK2 substrate peptide, single letter sequence P7-P′1 (GSNTEKRL; listed as Homo sapiens) | 255.90 FU/hr/m | 0.13 FU/hr | – | – | –
SEQ ID NO: 77: hK2 substrate peptide, single letter sequence P7-P′1 (GSNTERRL; listed as Homo sapiens) | 592.34 FU/hr/m | UD (The entries “U.D.” were for measurements of less than 0.01 FU/hour) | – | – | –
PSTI: protease inhibitor present in the prostate (DSLGREAKCYNELNGCTKIYDPVCGTDGNTYPNECVLCFENRKRQTSILIQKSGPC) | – | – | – | – | inhibition of hK2 (in words) (hK2 [1]): inhibited hK2 weakly; Activity (%) of hK2, percentage of inhibitor-free control (hK2 [1]; inhibitor 0.08 μM, 10 minutes of incubation, 8.3 nM hK2, 90 μM substrate): 100%; Activity (%) of hK2, percentage of inhibitor-free control (hK2 [1]; inhibitor 4 μM, 10 minutes of incubation, 8.3 nM hK2, 90 μM substrate): 89%
SEQ ID NO: 79: hK2 substrate peptide, single letter sequence P7-P′1 (GKDVSGRL; listed as Homo sapiens) | 242.91 FU/hr/m | 0.05 FU/hr | – | – | –
SEQ ID NO: 74: hK2 substrate peptide, single letter sequence P7-P′1 (GSYPSRRL; listed as Homo sapiens) | 2060.21 FU/hr/m | 0.09 FU/hr | – | – | –
SEQ ID NO: 66: hK2 substrate peptide, single letter sequence P7-P′1 (GHEQKRRL; listed as Homo sapiens) | 5966.31 FU/hr/m | 0.17 FU/hr | 3366.5 FU/hr/m | UD (The entries “U.D.” were for measurements of less than 0.01 FU/hour) | –
SEQ ID NO: 88: hK2 substrate peptide, single letter sequence P7-P′1 (GPAHQDRL; listed as Homo sapiens) | 75.34 FU/hr/m | 0.06 FU/hr | – | – | –

Compound | hK2 Hydrolysis Rate (hK2 [2]; Table 4) | Serum Hydrolysis Rate ([3]; Table 4) | hK2 Hydrolysis Rate (hK2 [2]; Table 5) | Serum Hydrolysis Rate ([3]; Table 5) | also measured
SEQ ID NO: 84: hK2 substrate peptide, single letter sequence P7-P′1 (GSYEERHL; listed as Homo sapiens) | 42.87 FU/hr/m | 0.09 FU/hr | – | – | –
SEQ ID NO: 95: hK2 substrate peptide, single letter sequence P7-P′1 (GHEAKRRL; listed as Homo sapiens) | – | – | 3324.1 FU/hr/m | UD (The entries “U.D.” were for measurements of less than 0.01 FU/hour) | –
SEQ ID NO: 78: hK2 substrate peptide, single letter sequence P7-P′1 (GSYEERRL; listed as Homo sapiens) | 324.75 FU/hr/m | 0.04 FU/hr | – | – | –
SEQ ID NO: 118: hK2 substrate peptide, single letter sequence P6-P′1 (GGKARNL; listed as Homo sapiens) | – | – | 828.4 FU/hr/m | 0.25 FU/hr | –
SEQ ID NO: 91: hK2 substrate peptide, single letter sequence P7-P′1 (GSYPSSHL; listed as Homo sapiens) | 24.68 FU/hr/m | UD (The entries “U.D.” were for measurements of less than 0.01 FU/hour) | – | – | –
SEQ ID NO: 82: hK2 substrate peptide, single letter sequence P7-P′1 (GSQNQVRL; listed as Homo sapiens) | 193.55 FU/hr/m | 0.03 FU/hr | – | – | –
SEQ ID NO: 103: hK2 substrate peptide, single letter sequence P7-P′1 (GAEQKRRL; listed as Homo sapiens) | – | – | 2325.8 FU/hr/m | 0.10 FU/hr | –
SEQ ID NO: 73: hK2 substrate peptide, single letter sequence P7-P′1 (GSQNQRRL; listed as Homo sapiens) | 2100.48 FU/hr/m | 0.05 FU/hr | – | – | –
SEQ ID NO: 71: hK2 substrate peptide, single letter sequence P7-P′1 (GSKGHRRL; listed as Homo sapiens) | 2649.96 FU/hr/m | UD (The entries “U.D.” were for measurements of less than 0.01 FU/hour) | – | – | –
SEQ ID NO: 121: hK2 substrate peptide, single letter sequence P6-P′1 (GGKAHKL; listed as Homo sapiens) | – | – | 73.2 FU/hr/m | UD (The entries “U.D.” were for measurements of less than 0.01 FU/hour) | –
SEQ ID NO: 114: hK2 substrate peptide, single letter sequence P6-P′1 (GGKAHRL; listed as Homo sapiens) | – | – | 1287.4 FU/hr/m | 0.10 FU/hr | –
SEQ ID NO: 93: hK2 substrate peptide, single letter sequence P7-P′1 (GHAQKRRL; listed as Homo sapiens) | – | – | 3665.1 FU/hr/m | 0.08 FU/hr | –
SEQ ID NO: 69: hK2 substrate peptide, single letter sequence P7-P′1 (GPAHQRRL; listed as Homo sapiens) | 4017.81 FU/hr/m | 0.10 FU/hr | – | – | –
SEQ ID NO: 111: hK2 substrate peptide, single letter sequence P6-P′1 (GGKARRS; listed as Homo sapiens) | – | – | 1609.6 FU/hr/m | UD (The entries “U.D.” were for measurements of less than 0.01 FU/hour) | –
SEQ ID NO: 104: hK2 substrate peptide, single letter sequence P6-P′1 (GGKAQRL; listed as Homo sapiens) | – | – | 2233.7 FU/hr/m | 0.04 FU/hr | –
SEQ ID NO: 102: hK2 substrate peptide, single letter sequence P6-P′1 (GGKAFRL; listed as Homo sapiens) | – | – | 2374.2 FU/hr/m | 0.07 FU/hr | –

— patent US8450280B2, “Activation of peptide prodrugs by hK2” (GenbSpera, Inc., priority 1999, dated 2013)
